“Also recorded” adds a separate entry of the source.
Tests used:
Type in all cases: cell-based, mouse
[1] = tested on: wild type (WT) primary B cells; assay: CFSE dilution / TO-PRO-3 FACS of wild type B cells (Example 4); details: 72 hours, FIG. 4
Procedure: (§1) Primary murine B cells were purified by positive selection as described above. For cultures >48 hours old, proliferation was quantified by carboxyfluorescein diacetate, succinimidyl ester (CFSE) dilution and cell death by TO-PRO-3 binding. To label the cells with CFSE, the cells were first washed 2 times with PBS. Next, the stock of CFSE was diluted to 10 μM in PBS and the cells were brought to 1×10^7 cells/ml. The cells were mixed at a 1:1 ratio with 10 μM CFSE and mixed gently for 2 minutes. The CFSE labeling reaction was stopped by adding heat inactivated fetal calf serum equal in volume to the starting volume for the cell suspension. The cells were washed two times with media and resuspended to 1-4×10^6 cells/ml and were incubated with 0.5 μg/ml DVD-Ig proteins (DVD3759 and DVD3754) or antibodies, with or with out 0.05 μg/ml Blys. Proliferation was measured by fluorophore dilution at 60-72 hours by flow cytometry. […]
To determine if IRAK4 kinase activity is required for activation and/or death induced TLR9 via DVD3759, either wild type (WT), IRAK2 knock out (IRAK2KO) or IRAK 4 knock-in (IRAK4 KI) primary B cells were purified and tested in a method similar to Example 2.7. […] After 72 hours, cells were stained with 500 nM of the cell permeable DNA stain TOP-RO-3 and analyzed by FACS. Cell division was determined by dilution of CFSE and dead cells were identified by staining with TOP-RO-3.

[2] = tested on: Primary murine B cells; assay: CFSE dilution / Sytox Blue FACS of primary murine B cells; details: 72 hours, FIG. 3
Procedure: as §1, with “The cells were washed two times with media and resuspended to 1-4×10^6 cells/ml and were incubated with 0.5 μg/ml DVD-Ig proteins (DVD3759 and DVD3754) or antibodies, with or with out 0.05 μg/ml Blys.” left out
Primary murine B cells were labeled and prepared as in Example 2.7 and stimulated with either media alone, […] of TLR9 ligand CpG oligodeoxynucleotide (ODN) 1826, […] of the mouse anti-chromatin autoantibody PL2-3 or […] DVD3759 in the presence or absence of […] of the B cell survival factor BLyS. After 72 hours, cells were stained with 1 μM of the cell permeable DNA stain Sytox Blue and analyzed by fluorescence activated cell sorting (FACS). Cell division was determined by dilution of CFSE and dead cells were identified by staining with Sytox Blue.

[3] = tested on: Dnase2−/− Ifnar1−/− Unc93b1−/− TKO B cells; assay: 3H-thymidine incorporation of B220-purified B cells, TKO; details: 24 hours, FIG. 10C
Text: (§2) Mice: RF and Tlr-9^−/− mice have been described previously (Uccellini et al. (2008) J. Immunol. 181:5875-5884), The DNase II-deficient mice on a C57BL/6 background were kindly provided by Dr. S, Nagata and obtained from the RIKEN Institute. […] and Unc93B1-deficient mice were obtained from Jackson Lab. DnaseII^−/− Ifnar1^−/− (Het), DnaseII^−/− Ifnar1−/− (DKO), and DnaseII^−/− Unc93b1^−/− (TKO), were bred at UMMS. All mice were maintained at the Department of Animal Medicine of the University of Massachusetts Medical School in accordance with the regulations of the American Association for the Accreditation of Laboratory Animal Care.
(§3) Proliferation of B220+ B cells: B cells were purified by magnetic bead separation using CD45R/B220-conjugated magnetic particles (BD Biosciences, San Jose, Calif., USA) and stimulated as described previously (Nundel et al. (2013) J. Leukoc. Biol. 94:865-875) with 15 μg/ml goat anti-mouse IgM F(ab′)2 (Jackson ImmunoResearch), ODN1826 (CpG; Idera Pharmaceuticals), anti-DNA-mAb (Leadbetter et al. (2002) Nature 416:603-607), or DVD-Ig proteins (1 μg/ml). B cell proliferation was assessed by ^3H-thymidine (Amersham Biosciences, Piscataway, N.J., USA) incorporation at 24 hours post-stimulation. For long-term proliferation assays, B220-purified B cells were labeled with a final concentration of 2.5 μM CFSE (Life Technologies) in PBS for 2 minutes. […]

[4] = tested on: BALB/c B cells; assay: Proliferation of B220+ B cells, non-Tg BALB/c; details: 3H-thymidine 24 hours, CFSE 72 hours; FIG. 8D, 9
Procedure: (§4) Proliferation of B220+ B cells: B cells were purified by magnetic bead separation using CD45R/B220-conjugated magnetic particles (BD Biosciences, San Jose, Calif., USA) and stimulated as described previously (Nundel et al. (2013) J. Leukoc. Biol. 94:865-875) with 15 μg/ml goat anti-mouse IgM F(ab′)2 (Jackson ImmunoResearch), ODN1826 (CpG; Idera Pharmaceuticals), anti-DNA-mAb (Leadbetter et al. (2002) Nature 416:603-607), or DVD-Ig proteins (1 μg/ml). B cell proliferation was assessed by ^3H-thymidine (Amersham Biosciences, Piscataway, N.J., USA) incorporation at 24 hours post-stimulation. For long-term proliferation assays, B220-purified B cells were labeled with a final concentration of 2.5 μM CFSE (Life Technologies) in PBS for 2 minutes. The cells were then washed and cultured for 72 hours in the presence of BLyS (Human Genome Sciences).
(§5) FACS for B cells: Multicolor flow cytometry analysis was carried out using a BD LSR II with DIVA software (BD Biosciences). Analysis was conducted with FlowJo software (Tree Star, Ashland, Oreg., USA) Immature and mature B cell ratios were determined using Pacific Blue-B220 and APC-AA4.1 (eBioscience). Dead cells and debris were excluded by forward- and side-scatter. Proliferation was assessed by CFSE dilution. Cell death was ascertained using the DNA stain TO-PRO-3 (Life Technologies) at a final concentration of 20 nM.

[5] = tested on: RF B cells; assay: Proliferation of B220+ B cells, RF (AM14)
Procedure: as §4, §5

[6] = tested on: RF Tlr9−/− or BALB/c Tlr9−/− B cells; assay: Proliferation of B220+ B cells, Tlr9-/-; details: 3H-thymidine 24 hours, CFSE 72 hours; FIG. 9
Procedure: as §4, §5

[7] = tested on: Dnase2−/− Ifnar1−/− DKO B cells; assay: 3H-thymidine incorporation of B220-purified B cells, DKO; details: 24 hours, FIG. 10C
Text: as §2, §3

B1: DVD3759: DVD-Ig: VD1 mIgM (B7.6), SL linker, VD2 DNA(PA4); heavy SEQ ID NO 64, light 65 (antibody)
heavy: QVQLKESGPGLVKPSLTLSLTCTVSGFSLNGYGVIWVRQPPGKGLEWMGVIWGNGNTNYNSTLKSRLSISRDTSKSQVFLKMNNLQTEDTAMYFCARSENYYSSPGYFAYWGQGTLVTVSSASTKGPEVQLVESGGGLVKPGGSLKLSCVASGFTFSTYAMSWVRQTPTKRLEWVATISRGGVSTYYPDTVKGRFTISRDNAKNTLYLQMSSLRSEDTAMYYCARPPTIVTTWFAYWGQGTLVTVSS
light: NTVMTQSPTSMFISVGDRVTMNCKASQNVGSDVDWYQQKTGQSPKLLISGTSNRYTGVPDRFTGSGSGTDFTLTISNMQAEDLAVYYCLQYNYNPTFGAGTKLELKRTVAAPSVFIFPPDVVMTQTPLSLPVSLGDQASISCRSSQSLVHSNGNTYLHWYLQKPGQSPKLLIYKVSNRFSGVPDRFSGSGSGTDFTLKISRVEAEDLGAYFCSQSTHVPYTFGGPTRLEIKR
In the case of B1, the “effect of addition of BLyS on cell death” value ([1]; 0.05 μg/ml BLyS) is reported as “could be rescued”, the “cell division (CFSE dilution) and cell death (TO-PRO-3)” value ([1]; 0.5 μg/ml) is reported as “induced several rounds of division followed by post-proliferative cell death” and the “effect of addition of BLyS on cell death” value ([2]; 0.05 mg/ml BLyS) is reported as “could be rescued”. For the same molecule, the “cell division (CFSE dilution) and cell death (Sytox Blue)” value ([2]; absence of BLyS) was “induced several rounds of division followed by post-proliferative cell death”.

B2: DVD3754: DVD-Ig: VD1 DNA(PA4), SL linker, VD2 mIgM (B7.6); heavy SEQ ID NO 54, light 55 (antibody)
heavy: EVQLVESGGGLVKPGGSLKLSCVASGFTFSTYAMSWVRQTPTKRLEWVATISRGGVSTYYPDTVKGRFTISRDNAKNTLYLQMSSLRSEDTAMYYCARPPTIVTTWFAYWGQGTLVTVSSASTKGPQVQLKESGPGLVKPSLTLSLTCTVSGFSLNGYGVIWVRQPPGKGLEWMGVIWGNGNTNYNSTLKSRLSISRDTSKSQVFLKMNNLQTEDTAMYFCARSENYYSSPGYFAYWGQGTLVTVSS
light: DVVMTQTPLSLPVSLGDQASISCRSSQSLVHSNGNTYLHWYLQKPGQSPKLLIYKVSNRFSGVPDRFSGSGSGTDFTLKISRVEAEDLGAYFCSQSTHVPYTFGGPTRLEIKRTVAAPSVFIFPPNTVMTQSPTSMFISVGDRVTMNCKASQNVGSDVDWYQQKTGQSPKLLISGTSNRYTGVPDRFTGSGSGTDFTLTISNMQAEDLAVYYCLQYNYNPTFGAGTKLELKR
For B2, the “response of TKO B cells” value [3] was “failed to respond”, the “activation / proliferation of non-Tg BALB/c B cells” value [4] was “stimulated BALB/c B cells more strongly than the rest; also recorded: induced both RF and non-Tg BALB/c B cells” and the “level of activation compared with anti-DNA mAb” value ([5]; FIG. 9A,B) was “comparable”. The “activation / proliferation of RF B cells” value ([5]; Tlr9+/+, 3H-thymidine 24 hours, CFSE 72 hours, FIG. 9) was “induced both RF and non-Tg BALB/c B cells”, the “proliferation of Tlr9−/− B cells” value [6] was “not RF Tlr9^−/− or BALB/c Tlr9^−/− B cells” and the “response of DKO B cells” value [7] was “failed to respond”.

Reference: US20150125397A1, “DUAL SPECIFIC BINDING PROTEINS DIRECTED AGAINST IMMUNE CELL RECEPTORS AND AUTOANTIGENS” (ABBVIE INC., priority 2013, published 2015)
